# From the supplement of paper PMC9112550, “Optimization of the antimicrobial peptide Bac7 by deep mutational scanning” (BMC Biology, 2022)
# Tested on: Escherichia coli TOP10
# Experiment: shrunken log2 fold change of peptide-encoding DNA abundance (4.5 h post-induction vs induction); higher = less antimicrobial activity (less host growth inhibition)
# Details: time post-induction: 4.5 h; library: site-saturation at positions 5, 18, 19, 20
# 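Further: peptides expressed intracellularly from a pBAD plasmid library in pooled LB shake-flask culture, induced with 0.3% L-arabinose, DNA abundance read by NGS, three biological replicates, DESeq2 with apeglm shrinkage.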
row,Sequence,shrunken log2 fold change
1,RRIRCRPPRLPRPRPRPQSVPRP,-0.125
2,RRIRCRPPRLPRPRPRPQTFPRP,-0.139
3,RRIRCRPPRLPRPRPRPQTMPRP,-0.349
4,RRIRCRPPRLPRPRPRPQTYPRP,-0.727
5,RRIRCRPPRLPRPRPRPQYNPRP,-1.36
6,RRIRCRPPRLPRPRPRPQYVPRP,-0.345
7,RRIRCRPPRLPRPRPRPQYWPRP,-0.312
8,RRIRCRPPRLPRPRPRPRDEPRP,0.342
9,RRIRCRPPRLPRPRPRPRDLPRP,0.108
10,RRIRCRPPRLPRPRPRPRDRPRP,0.731
11,RRIRCRPPRLPRPRPRPRECPRP,-0.146
12,RRIRCRPPRLPRPRPRPREMPRP,0.245
13,RRIRCRPPRLPRPRPRPREQPRP,0.312
14,RRIRCRPPRLPRPRPRPREVPRP,0.415
15,RRIRCRPPRLPRPRPRPRFLPRP,-0.232
16,RRIRCRPPRLPRPRPRPRGRPRP,0.46
17,RRIRCRPPRLPRPRPRPRHFPRP,-0.374
18,RRIRCRPPRLPRPRPRPRIEPRP,-0.205
19,RRIRCRPPRLPRPRPRPRIMPRP,-0.293
20,RRIRCRPPRLPRPRPRPRIWPRP,0.0951
21,RRIRCRPPRLPRPRPRPRMPPRP,0.187
22,RRIRCRPPRLPRPRPRPRNGPRP,0.124
23,RRIRCRPPRLPRPRPRPRNQPRP,-0.0402
24,RRIRCRPPRLPRPRPRPRPDPRP,0.276
25,RRIRCRPPRLPRPRPRPRPNPRP,0.478

row,Sequence,shrunken log2 fold change
1,RRIRCRPPRLPRPRPRPRQTPRP,0.781
2,RRIRCRPPRLPRPRPRPRRCPRP,0.42
3,RRIRCRPPRLPRPRPRPRRWPRP,0.646
4,RRIRCRPPRLPRPRPRPRSIPRP,-0.0603
5,RRIRCRPPRLPRPRPRPRSNPRP,-0.349
6,RRIRCRPPRLPRPRPRPRTTPRP,0.472
7,RRIRCRPPRLPRPRPRPRWVPRP,2.6
8,RRIRCRPPRLPRPRPRPRYAPRP,-0.229
9,RRIRCRPPRLPRPRPRPRYRPRP,-0.176
10,RRIRCRPPRLPRPRPRPSAKPRP,0.189
11,RRIRCRPPRLPRPRPRPSCVPRP,-0.0959
12,RRIRCRPPRLPRPRPRPSDMPRP,-0.415
13,RRIRCRPPRLPRPRPRPSFLPRP,-0.718
14,RRIRCRPPRLPRPRPRPSGVPRP,-0.311
15,RRIRCRPPRLPRPRPRPSHIPRP,-0.637
16,RRIRCRPPRLPRPRPRPSIGPRP,-0.098
17,RRIRCRPPRLPRPRPRPSINPRP,-0.86
18,RRIRCRPPRLPRPRPRPSKCPRP,-0.266
19,RRIRCRPPRLPRPRPRPSLEPRP,-0.136
20,RRIRCRPPRLPRPRPRPSMCPRP,-0.14
21,RRIRCRPPRLPRPRPRPSMFPRP,-0.651
22,RRIRCRPPRLPRPRPRPSMTPRP,-0.178
23,RRIRCRPPRLPRPRPRPSNKPRP,-0.44
24,RRIRCRPPRLPRPRPRPSNSPRP,-0.644
25,RRIRCRPPRLPRPRPRPSNTPRP,-0.417

row,Sequence,shrunken log2 fold change
1,RRIRCRPPRLPRPRPRPSPGPRP,0.0883
2,RRIRCRPPRLPRPRPRPSPLPRP,0.21
3,RRIRCRPPRLPRPRPRPSPPPRP,0.252
4,RRIRCRPPRLPRPRPRPSQGPRP,-0.137
5,RRIRCRPPRLPRPRPRPSQSPRP,-0.221
6,RRIRCRPPRLPRPRPRPSRAPRP,0.113
7,RRIRCRPPRLPRPRPRPSTDPRP,-0.348
8,RRIRCRPPRLPRPRPRPSTRPRP,-0.119
9,RRIRCRPPRLPRPRPRPSVAPRP,-0.276
10,RRIRCRPPRLPRPRPRPSWCPRP,-0.417
11,RRIRCRPPRLPRPRPRPSWDPRP,-0.134
12,RRIRCRPPRLPRPRPRPSWMPRP,0.326
13,RRIRCRPPRLPRPRPRPSYDPRP,-0.428
14,RRIRCRPPRLPRPRPRPSYNPRP,-0.816
15,RRIRCRPPRLPRPRPRPTAMPRP,-0.113
16,RRIRCRPPRLPRPRPRPTDKPRP,-0.243
17,RRIRCRPPRLPRPRPRPTEFPRP,-0.0561
18,RRIRCRPPRLPRPRPRPTGRPRP,0.238
19,RRIRCRPPRLPRPRPRPTHAPRP,0.975
20,RRIRCRPPRLPRPRPRPTHWPRP,0.546
21,RRIRCRPPRLPRPRPRPTKVPRP,-0.413
22,RRIRCRPPRLPRPRPRPTKWPRP,-0.121
23,RRIRCRPPRLPRPRPRPTLWPRP,0.313
24,RRIRCRPPRLPRPRPRPTMKPRP,-0.246
25,RRIRCRPPRLPRPRPRPTMWPRP,0.259

row,Sequence,shrunken log2 fold change
1,RRIRCRPPRLPRPRPRPTNKPRP,-0.0578
2,RRIRCRPPRLPRPRPRPTQCPRP,0.0468
3,RRIRCRPPRLPRPRPRPTREPRP,0.684
4,RRIRCRPPRLPRPRPRPTRYPRP,-0.0935
5,RRIRCRPPRLPRPRPRPTSSPRP,-0.11
6,RRIRCRPPRLPRPRPRPTVEPRP,0.199
7,RRIRCRPPRLPRPRPRPTVRPRP,0.128
8,RRIRCRPPRLPRPRPRPTVSPRP,0.0953
9,RRIRCRPPRLPRPRPRPTWEPRP,-0.0631
10,RRIRCRPPRLPRPRPRPTWQPRP,0.288
11,RRIRCRPPRLPRPRPRPTWSPRP,0.346
12,RRIRCRPPRLPRPRPRPTYAPRP,0.125
13,RRIRCRPPRLPRPRPRPTYTPRP,-0.793
14,RRIRCRPPRLPRPRPRPVAYPRP,-0.232
15,RRIRCRPPRLPRPRPRPVCTPRP,0.0452
16,RRIRCRPPRLPRPRPRPVCVPRP,-0.0801
17,RRIRCRPPRLPRPRPRPVDPPRP,0.227
18,RRIRCRPPRLPRPRPRPVDQPRP,-0.304
19,RRIRCRPPRLPRPRPRPVDWPRP,1.33
20,RRIRCRPPRLPRPRPRPVEEPRP,-0.0384
21,RRIRCRPPRLPRPRPRPVFDPRP,-0.198
22,RRIRCRPPRLPRPRPRPVGAPRP,0.622
23,RRIRCRPPRLPRPRPRPVHIPRP,-0.831
24,RRIRCRPPRLPRPRPRPVKAPRP,0.0593
25,RRIRCRPPRLPRPRPRPVKQPRP,-0.222

row,Sequence,shrunken log2 fold change
1,RRIRCRPPRLPRPRPRPVLTPRP,-0.191
2,RRIRCRPPRLPRPRPRPVNTPRP,-0.259
3,RRIRCRPPRLPRPRPRPVPLPRP,0.00193
4,RRIRCRPPRLPRPRPRPVQAPRP,0.224
5,RRIRCRPPRLPRPRPRPVQGPRP,-0.0182
6,RRIRCRPPRLPRPRPRPVRGPRP,0.59
7,RRIRCRPPRLPRPRPRPVSDPRP,0.0185
8,RRIRCRPPRLPRPRPRPVTQPRP,-0.15
9,RRIRCRPPRLPRPRPRPVVYPRP,-0.0321
10,RRIRCRPPRLPRPRPRPVWLPRP,0.0721
11,RRIRCRPPRLPRPRPRPVWSPRP,-0.119
12,RRIRCRPPRLPRPRPRPWDHPRP,-0.259
13,RRIRCRPPRLPRPRPRPWFEPRP,-0.45
14,RRIRCRPPRLPRPRPRPWFHPRP,-1.28
15,RRIRCRPPRLPRPRPRPWFTPRP,-0.879
16,RRIRCRPPRLPRPRPRPWGFPRP,0.248
17,RRIRCRPPRLPRPRPRPWHAPRP,-0.271
18,RRIRCRPPRLPRPRPRPWHGPRP,-0.244
19,RRIRCRPPRLPRPRPRPWHPPRP,-0.0323
20,RRIRCRPPRLPRPRPRPWICPRP,-1
21,RRIRCRPPRLPRPRPRPWIIPRP,-0.577
22,RRIRCRPPRLPRPRPRPWIYPRP,-0.821
23,RRIRCRPPRLPRPRPRPWKPPRP,0.0199
24,RRIRCRPPRLPRPRPRPWKQPRP,-0.181
25,RRIRCRPPRLPRPRPRPWLFPRP,-0.179

row,Sequence,shrunken log2 fold change
1,RRIRCRPPRLPRPRPRPWMKPRP,-0.0192
2,RRIRCRPPRLPRPRPRPWMMPRP,-0.0394
3,RRIRCRPPRLPRPRPRPWMQPRP,-0.0437
4,RRIRCRPPRLPRPRPRPWMSPRP,-0.824
5,RRIRCRPPRLPRPRPRPWMYPRP,-0.0169
6,RRIRCRPPRLPRPRPRPWNMPRP,-0.316
7,RRIRCRPPRLPRPRPRPWPDPRP,0.0862
8,RRIRCRPPRLPRPRPRPWPFPRP,-0.121
9,RRIRCRPPRLPRPRPRPWPHPRP,-0.0205
10,RRIRCRPPRLPRPRPRPWPMPRP,0.168
11,RRIRCRPPRLPRPRPRPWQAPRP,0.204
12,RRIRCRPPRLPRPRPRPWREPRP,0.13
13,RRIRCRPPRLPRPRPRPWSNPRP,0.00372
14,RRIRCRPPRLPRPRPRPWTEPRP,-0.755
15,RRIRCRPPRLPRPRPRPWTLPRP,-0.282
16,RRIRCRPPRLPRPRPRPWTSPRP,-0.419
17,RRIRCRPPRLPRPRPRPWVDPRP,-0.00886
18,RRIRCRPPRLPRPRPRPWWIPRP,-0.655
19,RRIRCRPPRLPRPRPRPWYNPRP,-1.45
20,RRIRCRPPRLPRPRPRPYDAPRP,-0.334
21,RRIRCRPPRLPRPRPRPYDCPRP,-0.451
22,RRIRCRPPRLPRPRPRPYDKPRP,-0.985
23,RRIRCRPPRLPRPRPRPYEAPRP,-0.511
24,RRIRCRPPRLPRPRPRPYEKPRP,-0.0213
25,RRIRCRPPRLPRPRPRPYGKPRP,-0.307
